Laboratory results as given in article PMC3253074, “βB1-Crystallin: Thermodynamic Profiles of Molecular Interactions” (PLoS ONE, 2012).

B1: human βA3-crystallin, wild type recombinant (natural protein, UniProt P05813 1-215, looked up)
chain: METQAEQQELETLPTTKMAQTNPTPGSLGPWKITIYDQENFQGKRMEFTSSCPNVSERSFDNVRSLKVESGAWIGYEHTSFCGQQFILERGEYPRWDAWSGSNAYHIERLMSFRPICSANHKESKMTIFEKENFIGRQWEISDDYPSLQAMGWFNNEVGSMKIQSGAWVCYQYPGYRGYQYILECDHHGGDYKHWREWGSHAQTSQIQSIRRIQQ
notes: βA3-crystallin, human, wild type recombinant; monomer printed as 25 kDa; source: E. coli, purified (ion-exchange and size-exclusion chromatography)
B2: βB1/βA3 heterodimer (murine βB1 with human βA3) (complex, murine | human)
chain 1: MSQAAKASATTAVNPGPDGKGKGAPSTGPAPAPGPTPVPASVPRPAAKVGDLPPGSYRLIVFEQENFQGRRVEFSGECLNLGDRGFDRVRSLIVVSGPWVAFEQSAFRGEMFVLEKGEYPRWDTWTSSYRSDRLMSFRPIRMDSQEHKICLFEGANFKGNTMEIQEDDVPSLWVYGFCDRVGSITVSGGTWVGYQYPGYRGYQYLLEPGDFRHWNEWGAFQPQMQAVRRLRDRQWHQEGCFPVLTAEPPK
chain 2: METQAEQQELETLPTTKMAQTNPTPGSLGPWKITIYDQENFQGKRMEFTSSCPNVSERSFDNVRSLKVESGAWIGYEHTSFCGQQFILERGEYPRWDAWSGSNAYHIERLMSFRPICSANHKESKMTIFEKENFIGRQWEISDDYPSLQAMGWFNNEVGSMKIQSGAWVCYQYPGYRGYQYILECDHHGGDYKHWREWGSHAQTSQIQSIRRIQQ
notes: βB1-crystallin, mouse, wild type recombinant; as the chain of Wm1; βA3-crystallin, human, wild type recombinant; as the chain of Wm2; also called βB1/βA3 complex; source: equimolar mixture (~20 µM each) of βB1 and βA3 purified from E. coli, incubated at room temperature for 24 h
B3: βB1/βA3 heterodimer (murine βB1 with human βA3), the unit of the heterodimer-heterotetramer equilibrium (complex, murine | human)
chain 1: MSQAAKASATTAVNPGPDGKGKGAPSTGPAPAPGPTPVPASVPRPAAKVGDLPPGSYRLIVFEQENFQGRRVEFSGECLNLGDRGFDRVRSLIVVSGPWVAFEQSAFRGEMFVLEKGEYPRWDTWTSSYRSDRLMSFRPIRMDSQEHKICLFEGANFKGNTMEIQEDDVPSLWVYGFCDRVGSITVSGGTWVGYQYPGYRGYQYLLEPGDFRHWNEWGAFQPQMQAVRRLRDRQWHQEGCFPVLTAEPPK
chain 2: METQAEQQELETLPTTKMAQTNPTPGSLGPWKITIYDQENFQGKRMEFTSSCPNVSERSFDNVRSLKVESGAWIGYEHTSFCGQQFILERGEYPRWDAWSGSNAYHIERLMSFRPICSANHKESKMTIFEKENFIGRQWEISDDYPSLQAMGWFNNEVGSMKIQSGAWVCYQYPGYRGYQYILECDHHGGDYKHWREWGSHAQTSQIQSIRRIQQ
notes: βB1-crystallin, mouse, wild type recombinant, as m1; βA3-crystallin, human, wild type recombinant, as m2; The heterodimer is the unit of the best-fit model; also called βB1/βA3 complex; [βB1/βA3]4 (the tetramer); source: equimolar mixture (~20 µM each) of the purified E. coli proteins, incubated 24 h
B4: human βA3-crystallin (natural protein, UniProt P05813 1-215, looked up)
chain: METQAEQQELETLPTTKMAQTNPTPGSLGPWKITIYDQENFQGKRMEFTSSCPNVSERSFDNVRSLKVESGAWIGYEHTSFCGQQFILERGEYPRWDAWSGSNAYHIERLMSFRPICSANHKESKMTIFEKENFIGRQWEISDDYPSLQAMGWFNNEVGSMKIQSGAWVCYQYPGYRGYQYILECDHHGGDYKHWREWGSHAQTSQIQSIRRIQQ
notes: βA3-crystallin, human, wild type recombinant; monomer 25 kDa as printed; source: E. coli, purified (ion-exchange and size-exclusion chromatography)
B5: murine βB1-crystallin, wild type recombinant (natural protein, UniProt Q9WVJ5 1-250, looked up)
chain: MSQAAKASATTAVNPGPDGKGKGAPSTGPAPAPGPTPVPASVPRPAAKVGDLPPGSYRLIVFEQENFQGRRVEFSGECLNLGDRGFDRVRSLIVVSGPWVAFEQSAFRGEMFVLEKGEYPRWDTWTSSYRSDRLMSFRPIRMDSQEHKICLFEGANFKGNTMEIQEDDVPSLWVYGFCDRVGSITVSGGTWVGYQYPGYRGYQYLLEPGDFRHWNEWGAFQPQMQAVRRLRDRQWHQEGCFPVLTAEPPK
notes: βB1-crystallin, mouse, wild type recombinant; monomer printed as 28 kDa; source: E. coli, purified (ion-exchange and size-exclusion chromatography)
B6: murine βB1-crystallin (natural protein, UniProt Q9WVJ5 1-250, looked up)
chain: MSQAAKASATTAVNPGPDGKGKGAPSTGPAPAPGPTPVPASVPRPAAKVGDLPPGSYRLIVFEQENFQGRRVEFSGECLNLGDRGFDRVRSLIVVSGPWVAFEQSAFRGEMFVLEKGEYPRWDTWTSSYRSDRLMSFRPIRMDSQEHKICLFEGANFKGNTMEIQEDDVPSLWVYGFCDRVGSITVSGGTWVGYQYPGYRGYQYLLEPGDFRHWNEWGAFQPQMQAVRRLRDRQWHQEGCFPVLTAEPPK
notes: βB1-crystallin, mouse, wild type recombinant; monomer 28 kDa as printed; source: E. coli, purified (ion-exchange and size-exclusion chromatography)

What was measured:
[1] = molecular target: the molecule itself; test: AUC; sedimentation equilibrium at 5°C increments over 5-30°C, 0.5 mg/ml, Buffer A pH 7.5; enthalpy from van't Hoff plots of ln(Kd/Co) against 1/T; dimer to monomers (βB1, βA3), heterotetramer to heterodimers (βB1/βA3)
[2] = molecular target: B5; test: SEC; equimolar mixture (~20 µM each) incubated 24 h, Superdex 75 HR10/30, Buffer A (50 mM Tris-HCl, 1 mM EDTA, 0.15 M NaCl, 1 mM TCEP, pH 7.5), 0.5 ml/min; settings: both partners purified
[3] = molecular target: the molecule itself; test: AUC; sedimentation equilibrium at 5°C increments over 5-30°C, 0.5 mg/ml, Buffer A pH 7.5; enthalpy from van't Hoff plots of ln(Kd/Co) against 1/T; dimer to monomers (βB1, βA3), heterotetramer to heterodimers (βB1/βA3); remark: listed apart in the source
[4] = molecular target: the molecule itself; test: AUC; sedimentation equilibrium of the equimolar βB1/βA3 mixture, 18,500 rpm, 15 °C, Buffer A pH 7.5, 0.5 mg/ml; heterotetramer to heterodimers
[5] = molecular target: the molecule itself; test: AUC; sedimentation equilibrium of the equimolar βB1/βA3 mixture, 18,500 rpm, 30 °C, Buffer A pH 7.5, 0.5 mg/ml; heterotetramer to heterodimers
[6] = molecular target: the molecule itself; test: AUC; sedimentation equilibrium of the equimolar βB1/βA3 mixture, 18,500 rpm, 10 °C, Buffer A pH 7.5, 0.5 mg/ml; heterotetramer to heterodimers
[7] = molecular target: the molecule itself; test: AUC; sedimentation equilibrium of the equimolar βB1/βA3 mixture, 18,500 rpm, 25 °C, Buffer A pH 7.5, 0.5 mg/ml; heterotetramer to heterodimers
[8] = molecular target: the molecule itself; test: AUC; sedimentation equilibrium of the equimolar βB1/βA3 mixture, 18,500 rpm, 5 °C, Buffer A pH 7.5, 0.5 mg/ml; heterotetramer to heterodimers
[9] = molecular target: the molecule itself; test: AUC; sedimentation equilibrium of the equimolar βB1/βA3 mixture, 18,500 rpm, 16 h, 20°C, Buffer A pH 7.5; heterotetramer to heterodimers
[10] = molecular target: the molecule itself; test: AUC; sedimentation equilibrium, 18,500 rpm, 5 °C, Buffer A (50 mM Tris-HCl, 1 mM EDTA, 0.15 M NaCl, 1 mM TCEP, pH 7.5), 0.5 mg/ml; dimer to monomers
[11] = molecular target: the molecule itself; test: AUC; sedimentation equilibrium, 18,500 rpm, 20 °C, Buffer A (50 mM Tris-HCl, 1 mM EDTA, 0.15 M NaCl, 1 mM TCEP, pH 7.5), 0.5 mg/ml; dimer to monomers
[12] = molecular target: the molecule itself; test: AUC; sedimentation equilibrium, 18,500 rpm, 25 °C, Buffer A (50 mM Tris-HCl, 1 mM EDTA, 0.15 M NaCl, 1 mM TCEP, pH 7.5), 0.5 mg/ml; dimer to monomers
[13] = molecular target: the molecule itself; test: AUC; sedimentation equilibrium, 18,500 rpm, 10 °C, Buffer A (50 mM Tris-HCl, 1 mM EDTA, 0.15 M NaCl, 1 mM TCEP, pH 7.5), 0.5 mg/ml; dimer to monomers
[14] = molecular target: the molecule itself; test: AUC; sedimentation equilibrium, 18,500 rpm, 30 °C, Buffer A (50 mM Tris-HCl, 1 mM EDTA, 0.15 M NaCl, 1 mM TCEP, pH 7.5), 0.5 mg/ml; dimer to monomers
[15] = molecular target: the molecule itself; test: AUC; sedimentation equilibrium, 18,500 rpm, 15 °C, Buffer A (50 mM Tris-HCl, 1 mM EDTA, 0.15 M NaCl, 1 mM TCEP, pH 7.5), 0.5 mg/ml; dimer to monomers

Binder	dH (van't Hoff, ΔCp = 0) [1] [kcal/mol]	dH (van't Hoff, ΔCp nonzero) [1] [kcal/mol]	stoichiometry N [3]	Kd [10] [µM]	Kd [11] [µM]	Kd [12] [µM]	Kd [13] [µM]	Kd [14] [µM]	Kd [15] [µM]	other results
B1	8 ± 3	7.2 ± 2.5	2	–	–	–	–	–	–	binding result [2]: binds
B2	–	–	–	–	–	–	–	–	–	Kd [4]: 1140 nM; Kd [5]: 22.1 µM; Kd [6]: 540 nM; Kd [7]: 12.8 µM; Kd [8]: 1210 nM
B3	-24.5 ± 6.2	-29.6 ± 8.1	–	–	–	–	–	–	–	Kd [9]: 8.78 µM
B4	–	–	–	11.8	5.21	1.62	6.47	2.07	5.32	–
B5	-13.3 ± 5.6	-21.2 ± 4.6	2	–	–	–	–	–	–	–
B6	–	–	–	3.99	4.71	12.6	1.64	17.6	1.91	–
